Test results: patent US20050267024A1 (published 2005)
Positions count from the first letter of the chain named.

T1: VEGFR-3-Fc (human, UniProt P35916 25-328)
T1 construct: domain: first three Ig domains; used as conditioned supernatant of 293T cells; also called VEGFR-3-Fc fusion protein; not shown: Fc fragment of the pIg vector
T1 sequence (looked up): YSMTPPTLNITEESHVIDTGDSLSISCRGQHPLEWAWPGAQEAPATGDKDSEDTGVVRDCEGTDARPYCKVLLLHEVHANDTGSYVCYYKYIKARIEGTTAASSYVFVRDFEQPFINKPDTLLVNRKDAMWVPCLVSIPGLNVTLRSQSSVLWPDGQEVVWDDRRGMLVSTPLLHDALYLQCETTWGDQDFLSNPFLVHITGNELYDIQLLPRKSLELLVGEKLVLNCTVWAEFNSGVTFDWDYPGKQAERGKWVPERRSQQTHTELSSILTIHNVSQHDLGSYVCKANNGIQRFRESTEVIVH

B1: 12-14 (ligand)
chain: GQNHHEVVKFMDVYQRSYCHPIETLVDIFQEFGVATNTFFKPPCVSVYRCGGCCNDEGLECMNTSTSYLSKTLFEITVPLSQGPKPVTISFANHTSCRCMSKLD
B2: 61-14 (ligand)
chain: GQNHHEVVKFMDVYQRSYCHPREVCIDVGKEYPDEIEYIFKPSCVPLMRCGGCCNDEGLECMNTSTSYLSKTLFEITVPLSQGPKPVTISFANHTSCRCMSKLD
B3: 53-3 (ligand)
chain: AHYNTEILKSIDNEWRKTQCMPIETLVDIFQEYPDEIEYIFKPPCVSVYRCGGCCNSEGLQCVPTEESNITMQIMRIKPHQGQHIGEMSFLQHNKCECRPKKD
B4: 82-7 (ligand)
chain: AHYNTEILKFMDVYQRSYCHPIETLVDIFQEFGVATNTFFKPPCVSVYRCGGCCNSEGLQCVPTEESNITMQIMRIKPHQGQHIGEMSFANHTSCRCMSKLD
B5: 12-7 (ligand)
chain: B4 chain with A1G, H2Q, Y3N, N4H, T5H, I7V, L8V
B6: 14-9 (ligand)
chain: GQNHHEVVKFMDVYQRSYCHPIETLVDIFQEFGVATNTFFKPSCVPLMRCGGCCNDEGLECVPTEESNITMQIMRITVPLSQGPKPVTISFLQHNKCECRPKKD
B7: 12-3 (ligand)
chain: GQNHHEVVKFMDVYQRSYCHPIETLVDIFQEFGVATNTFFKPPCVSVYRCGGCCNSEGLQCVPTEESNITMQIMRIKPHQGQHIGEMSFLQHNKCECRPKKD
B8: 12-5 (ligand)
chain: B4 chain with A1G, H2Q, Y3N, N4H, T5H, I7V, L8V, S56D, Q60E
B9: 82-9 (ligand)
chain: AHYNTEILKFMDVYQRSYCHPIETLVDIFQEFGVATNTFFKPPCVSVYRCGGCCNDEGLECVPTEESNITMQIMRITVPLSQGPKPVTISFLQHNKCECRPKKD
B10: 12-9 (ligand)
chain: B6 chain with S43P, P46S, L47V, M48Y
B11: 84-11 (ligand)
chain: B9 chain with P43S, S46P, V47L, Y48M, D56S, E60Q
B12: 84-9 (ligand)
chain: B9 chain with P43S, S46P, V47L, Y48M
B13: 82-11 (ligand)
chain: B9 chain with D56S, E60Q
B14: 12-11 (ligand)
chain: B6 chain with S43P, P46S, L47V, M48Y, D56S, E60Q
B15: 83-15 (ligand)
chain: AHYNTEILKFMDVYQRSYCHPIETLVDIFQEYPDEIEYIFKPPCVSVYRCGGCCNSEGLQCVPTEESNITMQIMRITVPLSQGPKPVTISFANHTSCRCMSKLD
B16: 82-13 (ligand)
chain: B9 chain with L92A, Q93N, N95T, K96S, E98R, R100M, P101S, K103L
B17: 12-13 (ligand)
chain: GQNHHEVVKFMDVYQRSYCHPIETLVDIFQEFGVATNTFFKPPCVSVYRCGGCCNDEGLECVPTEESNITMQIMRITVPLSQGPKPVTISFANHTSCRCMSKLN
B18: 12-15 (ligand)
chain: B17 chain with D56S, E60Q, N104D
B19: 22-16 (ligand)
chain: AHYNTEILKSIDNEWRKTQCMPREVCIDVGKEFGVATNTFFKPPCVSVYRCGGCCNSEGLQCMNTSTSYLSKTLFEITVPLSQGPKPVTISFANHTSCRCMSKLD
B20: 72-7 (ligand)
chain: GQNHHEVVKSIDNEWRKTQCMPREVCIDVGKEFGVATNTFFKPPCVSVYRCGGCCNSEGLQCVPTEESNITMQIMRIKPHQGQHIGEMSFANHTSCRCMSKLD
B21: 22-1 (ligand)
chain: AHYNTEILKSIDNEWRKTQCMPREVCIDVGKEFGVATNTFFKPPCVSVYRCGGCCNDEGLECVPTEESNITMQIMRIKPHQGQHIGEMSFLQHNKCECRPKKD
B22: 11-1 (ligand)
chain: GQNHHEVVKFMDVYQRSYCHPIETLVDIFQEYPDEIEYIFKPSCVPLMRCGGCCNDEGLECVPTEESNITMQIMRIKPHQGQHIGEMSFLQHNKCECRPKKD
B23: 12-1 (ligand)
chain: B7 chain with S56D, Q60E

molecular target: T1, VEGFR-3-Fc; assay: receptor-Fc IP
Experimental: (§1) The binding assay procedure was identical to the immunoprecipitation using pentahistidine antibody described in Example 2, apart from the composition of the immunoprecipitation (IP) mixes. The IP mixes used for the receptor binding analysis were as follows: For VEGFR-1 binding assays, the IP mix was phosphate buffered saline (PBS) containing 1.5% BSA, 0.06% Tween 20, 3 μg/ml heparin and 400 ng/ml VEGFR-1-Fc fusion protein (100 μl of this IP mix was added to 200 μl of sample supernatant); for VEGFR-2 binding assays, the IP mix was 82% conditioned cell supernatant from 293T cells transiently expressing VEGFR-2-Fc fusion protein in mixture with 18% of a PBS solution that contained 5% BSA, 0.2% Tween 20, and 10 μg/ml heparin (250 μl of IP mix was added to 200 μl of sample supernatant); and for VEGFR-3 binding assays, the IP mix was 82% conditioned cell supernatant from 293T cells transiently expressing VEGFR-3-Fc fusion protein, 18% of PBS containing 5% BSA, 0.2% Tween 20, and 10 μg/ml heparin (250 μl of IP mix was added to 200 μl of sample supernatant).

Row | binding result | Binder
1 | binds | B1
2 | no binding | B2
3 | binds | B3
4 | binds | B4
5 | binds | B5
6 | binds | B6
7 | no binding | B7
8 | no binding | B8
9 | binds | B9
10 | binds | B10
11 | binds | B11
12 | binds | B12
13 | binds | B13
14 | binds | B14
15 | no binding | B15
16 | binds | B16
17 | binds | B17
18 | binds | B18
19 | binds | B19
20 | no binding | B20
21 | no binding | B21
22 | no binding | B22
23 | binds | B23

molecular target: T2, VEGFR-1-Fc (human, UniProt P17948 27-331); assay: receptor-Fc IP
T2 construct: domain: first three Ig domains; expressed in Drosophila S2 cells, purified on Protein A sepharose; also called VEGFR-1-Fc fusion protein; not shown: Fc fragment from the Signal-pIgPlus vector
T2 sequence (P17948 27-331): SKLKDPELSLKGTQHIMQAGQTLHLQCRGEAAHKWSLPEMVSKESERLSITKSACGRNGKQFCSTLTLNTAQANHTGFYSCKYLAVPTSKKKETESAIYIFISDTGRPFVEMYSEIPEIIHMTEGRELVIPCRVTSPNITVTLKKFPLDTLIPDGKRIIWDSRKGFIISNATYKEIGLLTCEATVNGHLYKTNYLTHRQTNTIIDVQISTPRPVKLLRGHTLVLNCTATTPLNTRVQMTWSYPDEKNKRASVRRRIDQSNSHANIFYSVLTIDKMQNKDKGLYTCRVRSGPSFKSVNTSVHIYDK
Experimental: as §1

Row | binding result | Binder
24 | no binding | B1
25 | no binding | B2
26 | binds | B3
27 | binds | B4
28 | binds | B5
29 | binds | B6
30 | binds | B7
31 | binds | B8
32 | binds | B9
33 | binds | B10
34 | binds | B11
35 | binds | B12
36 | binds | B13
37 | binds | B14
38 | binds | B15
39 | binds | B16
40 | binds | B17
41 | no binding | B18
42 | no binding | B19
43 | no binding | B20
44 | no binding | B21
45 | binds | B22
46 | binds | B23

molecular target: T3, VEGFR-2-Fc (human, UniProt P35968 20-322); assay: receptor-Fc IP
T3 construct: domain: first 3 Ig domains; used as conditioned supernatant of 293T cells; also called VEGFR-2-Fc fusion protein; not shown: Fc fragment of the pIg vector
T3 sequence (P35968 20-322): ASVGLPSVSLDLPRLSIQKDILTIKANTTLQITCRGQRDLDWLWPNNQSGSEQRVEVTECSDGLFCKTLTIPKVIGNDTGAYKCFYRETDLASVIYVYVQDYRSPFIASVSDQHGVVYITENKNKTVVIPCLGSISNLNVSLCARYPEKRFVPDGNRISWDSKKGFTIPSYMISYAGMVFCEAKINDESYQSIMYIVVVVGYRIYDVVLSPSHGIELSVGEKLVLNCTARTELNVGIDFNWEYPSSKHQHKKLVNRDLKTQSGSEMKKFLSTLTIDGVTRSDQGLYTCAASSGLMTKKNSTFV
Experimental: as §1

Row | binding result | Binder
47 | no binding | B1
48 | no binding | B2
49 | binds | B3
50 | binds | B4
51 | binds | B5
52 | binds | B6
53 | binds | B7
54 | no binding | B8
55 | binds | B9
56 | no binding | B10
57 | binds | B11
58 | binds | B12
59 | binds | B13
60 | binds | B14
61 | binds | B15
62 | no binding | B16
63 | no binding | B17
64 | binds | B18
65 | binds | B19
66 | no binding | B20
67 | no binding | B21
68 | binds | B22
69 | binds | B23
